Laboratory results reported in article PMC8313286.

Assays:
[1] = target: RepA, putative replicase of megaplasmid pMP7017 (Bifidobacterium breve JCM7017 (megaplasmid pMP7017)); assay: SEC-MALS
[2] = target: RepB, replication initiator of megaplasmid pMP7017 (Bifidobacterium breve JCM7017 (megaplasmid pMP7017)); assay: SEC-MALS

Substance: RepA, putative replicase of megaplasmid pMP7017 (natural protein)
- percent of total protein in the dimer peak [1]: 67.3%
- percent of total protein in the presumed octamer peak [1]: 15.7%
- percent of total protein in the presumed tetramer peak [1]: 17%

Substance: RepB, replication initiator of megaplasmid pMP7017 (natural protein)
- percent of total sample in the dimer peak [2]: 97%
- stoichiometry N [2]: 2
